Substitutions are numbered along the chain they refer to.
What was measured:
Assay in all cases: EMSA
Conditions in all cases: tags: MBP fusion
ZFP SBS#1482 = biological target: T1, ZFP SBS#1482 (synthetic)
T1 chain: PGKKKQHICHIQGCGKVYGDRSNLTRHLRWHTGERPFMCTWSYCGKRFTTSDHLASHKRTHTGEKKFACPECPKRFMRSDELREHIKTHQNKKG
How it was run: (§1)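 Purified ZFP was titrated against labeled double-stranded target (1 nM or lower, at least 10-fold below expected Kd) carrying the natural binding site with flanks. Binding buffer was 10 mM Tris pH 7.5, 100 mM KCl, 1 mM MgCl2, 0.1 mM ZnCl2, 5 mM DTT, 10% glycerol, 0.02% BSA, with equilibration for at least 45 min. Bound and free target were separated on a 10% polyacrylamide gel.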

ZFP SBS#1483 = biological target: T2, ZFP SBS#1483 (synthetic)
T2 chain: T1 chain with T50M, D52H, A55T, S56T
How it was run: as §1

ZFP SBS#544 = biological target: T3, ZFP SBS#544 (synthetic)
T3 chain: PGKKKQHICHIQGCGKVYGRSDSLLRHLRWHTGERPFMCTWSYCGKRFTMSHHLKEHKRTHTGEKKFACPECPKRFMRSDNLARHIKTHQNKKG
How it was run: as §1

ZFP SBS#548 = biological target: T4, ZFP SBS#548 (synthetic)
T4 chain: T3 chain with D22S, S23L, L25Q, E56T, N81H, A83S
How it was run: as §1

ZFP SBS#552 = biological target: T5, ZFP SBS#552 (synthetic)
T5 chain: T3 chain with S21K, L25V, E56T, A83T
How it was run: as §1

ZFP SBS#549 = biological target: T6, ZFP SBS#549 (synthetic)
T6 chain: T3 chain with D22S, S23L, L25Q, N81H, A83S
How it was run: as §1

ZFP SBS#554 = biological target: T7, ZFP SBS#554 (synthetic)
T7 chain: T3 chain with S21K, L25V, M50T, H52D, K55A, E56S
How it was run: as §1

ZFP SBS#551 = ZFP SBS#551 (synthetic)
How it was run: as §1

ZFP SBS#546 = ZFP SBS#546 (synthetic)
Chain of ZFP SBS#546 (synthetic) (chain, as listed by the source): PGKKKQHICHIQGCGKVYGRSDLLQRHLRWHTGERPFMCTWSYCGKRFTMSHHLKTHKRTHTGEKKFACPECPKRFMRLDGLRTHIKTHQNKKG
How it was run: as §1

ZFP SBS#545 = biological target: T8, ZFP SBS#545 (synthetic)
T8 chain: T3 chain with S21K, L25V, M50T, H52D, K55A, E56S, A83T
How it was run: as §1

ZFP SBS#553 = biological target: T9, ZFP SBS#553 (synthetic)
T9 chain: T3 chain with A83T
How it was run: as §1

ZFP SBS#547 = biological target: T10, ZFP SBS#547 (synthetic)
T10 chain: T3 chain with S21K, L25V, M50T, H52G, K55T, E56S, A83T
How it was run: as §1

ZFP SBS#550 = biological target: T11, ZFP SBS#550 (synthetic)
T11 chain: T3 chain with S21K, L25V, M50T, S51K, H52D, K55A, E56S, A83T
How it was run: as §1

ZFP SBS#560 = biological target: T12, ZFP SBS#560 (synthetic)
T12 chain: T3 chain with D22S, S23L, L25Q, E56T, N81H, A83S
How it was run: as §1

ZFP SBS#543 = ZFP SBS#543 (synthetic)
How it was run: as §1

ZFP SBS#1498 = biological target: T13, ZFP SBS#1498 (synthetic)
T13 chain: T3 chain with R20Q, D22S, S23N, L25A, M50Q, H52S, H53A, K55T, E56R
How it was run: as §1

ZFP SBS#1499 = biological target: T14, ZFP SBS#1499 (synthetic)
T14 chain: T3 chain with R20Q, D22S, S23N, L25A, M50T, H52G, H53A, K55T, E56R
How it was run: as §1

ZFP SBS#1484 = ZFP SBS#1484 (synthetic)
Chain of ZFP SBS#1484 (synthetic) (chain, as listed by the source): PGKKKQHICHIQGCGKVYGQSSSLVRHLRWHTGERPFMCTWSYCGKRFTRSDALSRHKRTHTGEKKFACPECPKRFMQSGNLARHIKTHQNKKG
How it was run: as §1

ZFP SBS#1473 = biological target: T15, ZFP SBS#1473 (synthetic)
T15 chain: T1 chain with D20T, R21T, N23A, T50R, H53N, A55T, S56Q, E81S, R83T, E84T
How it was run: as §1

ZFP SBS#1476 = biological target: T16, ZFP SBS#1476 (synthetic)
T16 chain: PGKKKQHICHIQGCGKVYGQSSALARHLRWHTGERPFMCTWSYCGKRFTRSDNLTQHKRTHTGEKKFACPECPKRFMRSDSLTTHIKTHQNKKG
How it was run: as §1

ZFP SBS#1472 = biological target: T17, ZFP SBS#1472 (synthetic)
T17 chain: T16 chain with Q20T, S21T, A25T, S79A, S81A, T83M, T84V
How it was run: as §1

ZFP SBS#1474 = biological target: T18, ZFP SBS#1474 (synthetic)
T18 chain: T16 chain with S79A, S81A, T83M, T84V
How it was run: as §1

ZFP SBS#1475 = biological target: T19, ZFP SBS#1475 (synthetic)
T19 chain: T16 chain with S79L, D80H
How it was run: as §1

ZFP SBS#1487 = biological target: T20, ZFP SBS#1487 (synthetic)
T20 chain: T16 chain with Q20T, S21T, A25T, S79L, D80H
How it was run: as §1

ZFP SBS#1490 = biological target: T21, ZFP SBS#1490 (synthetic)
T21 chain: T1 chain with D20R, R21S, S22D, N23H, T25S, D52G, H53S, A55T, S56R, E81A
How it was run: as §1

ZFP SBS#1471 = biological target: T22, ZFP SBS#1471 (synthetic)
T22 chain: T3 chain with S23H, L25S, M50Q, H52S, H53A, K55T, E56R, N81A, A83R, R84E
How it was run: as §1

ZFP SBS#1460 = biological target: T23, ZFP SBS#1460 (synthetic)
T23 chain: T16 chain with Q20R, S22D, A23N, N53H, Q56R, S79A, S81A, T83M, T84V
How it was run: as §1

ZFP SBS#1496 = ZFP SBS#1496 (synthetic)
Chain of ZFP SBS#1496 (synthetic) (chain, as listed by the source): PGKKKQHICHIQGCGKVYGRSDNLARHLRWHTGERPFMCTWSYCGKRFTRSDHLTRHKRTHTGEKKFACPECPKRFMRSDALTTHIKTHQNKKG
How it was run: as §1

ZFP SBS#1522 = ZFP SBS#1522 (synthetic)
Chain of ZFP SBS#1522 (synthetic) (chain, as listed by the source): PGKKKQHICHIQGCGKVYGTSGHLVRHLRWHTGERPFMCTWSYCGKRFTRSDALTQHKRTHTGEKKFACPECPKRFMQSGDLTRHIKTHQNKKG
How it was run: as §1

ZFP SBS#1485 = ZFP SBS#1485 (synthetic)
How it was run: as §1

ZFP SBS#1491 = biological target: T24, ZFP SBS#1491 (synthetic)
T24 chain: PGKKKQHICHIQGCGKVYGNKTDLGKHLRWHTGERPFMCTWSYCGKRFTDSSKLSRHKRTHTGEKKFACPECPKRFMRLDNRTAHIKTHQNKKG
How it was run: as §1

ZFP SBS#1488 = ZFP SBS#1488 (synthetic)
Chain of ZFP SBS#1488 (synthetic) (chain, as listed by the source): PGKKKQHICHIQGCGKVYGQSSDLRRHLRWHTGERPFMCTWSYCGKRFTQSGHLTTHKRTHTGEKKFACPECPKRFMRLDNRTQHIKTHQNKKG
How it was run: as §1

ZFP SBS#1492 = biological target: T25, ZFP SBS#1492 (synthetic)
T25 chain: T16 chain with Q20R, S22D, A23N, A25T, R26T, N53H, Q56T, S81N, T84Q
How it was run: as §1

ZFP SBS#1493 = ZFP SBS#1493 (synthetic)
How it was run: as §1

ZFP SBS#1457 = ZFP SBS#1457 (synthetic)
Chain of ZFP SBS#1457 (synthetic) (chain, as listed by the source): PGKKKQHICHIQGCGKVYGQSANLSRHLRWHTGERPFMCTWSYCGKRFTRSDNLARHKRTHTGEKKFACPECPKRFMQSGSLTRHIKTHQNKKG
How it was run: as §1

ZFP SBS#1500 = ZFP SBS#1500 (synthetic)
How it was run: as §1

ZFP SBS#1497 = ZFP SBS#1497 (synthetic)
How it was run: as §1

ZFP SBS#1494 = biological target: T26, ZFP SBS#1494 (synthetic)
T26 chain: T1 chain with T50Q, S51R, D52S, H53A, E81H, R83S, E84R
How it was run: as §1

ZFP SBS#1486 = biological target: T27, ZFP SBS#1486 (synthetic)
T27 chain: T1 chain with S51T, D52S, H53A, E81H, R83S, E84R
How it was run: as §1

B1: CCGTGTGAC (dsDNA)
DNA 1: CCGTGTGAC
DNA 2: GTCACACGG
B1 gave a Kd (ZFP SBS#1482) of 111 nM and a Kd (ZFP SBS#1483) of 20.8 nM.

B2: GAGTGTGTGA (dsDNA)
DNA 1: GAGTGTGTGA
DNA 2: TCACACACTC
B2 showed a Kd (ZFP SBS#544) of 125 nM, a Kd (ZFP SBS#548) of 500 nM and a Kd (ZFP SBS#552) of 31 nM. The Kd (ZFP SBS#549) was 500 nM, the Kd (ZFP SBS#554) was 62.5 nM and the Kd (ZFP SBS#551) was 50 nM. For the same binder, the Kd (ZFP SBS#546) was 500 nM, the Kd (ZFP SBS#545) was 32 nM and the Kd (ZFP SBS#553) was 125 nM. For the same binder, the Kd (ZFP SBS#547) was 500 nM, the Kd (ZFP SBS#550) was 20 nM and the Kd (ZFP SBS#560) was 500 nM. It also gave a Kd (ZFP SBS#543) of 50 nM.

B3: GAGGTTGAT (dsDNA)
DNA 1: GAGGTTGAT
DNA 2: ATCAACCTC
With B3 the Kd (ZFP SBS#1498) was 0.101 nM and the Kd (ZFP SBS#1499) was 0.02 nM.

B4: GAAGTGGTA (dsDNA)
DNA 1: GAAGTGGTA
DNA 2: TACCACTTC
With B4 the Kd (ZFP SBS#1484) was 0.01 nM.

B5: TTGAAGGTT (dsDNA)
DNA 1: TTGAAGGTT
DNA 2: AACCTTCAA
With B5 the Kd (ZFP SBS#1473) was 0.47 nM, the Kd (ZFP SBS#1476) was 0.305 nM and the Kd (ZFP SBS#1472) was 3.22 nM. The Kd (ZFP SBS#1474) was 1.39 nM, the Kd (ZFP SBS#1475) was 0.39 nM and the Kd (ZFP SBS#1487) was 0.188 nM.

B6: CTGGTTGGG (dsDNA)
DNA 1: CTGGTTGGG
DNA 2: CCCAACCAG
B6 was tested, and the Kd (ZFP SBS#1490) was 0.04 nM and the Kd (ZFP SBS#1471) was 0.09 nM.

B7: TTGGGGGAG (dsDNA)
DNA 1: TTGGGGGAG
DNA 2: CTCCCCCAA
For B7, the Kd (ZFP SBS#1460) was 0.007 nM and the Kd (ZFP SBS#1496) was 0.065 nM.

B8: GCAATGGGT (dsDNA)
DNA 1: GCAATGGGT
DNA 2: ACCCATTGC
For B8, the Kd (ZFP SBS#1522) was 0.08 nM.

B9: AAGTGAGCT (dsDNA)
DNA 1: AAGTGAGCT
DNA 2: AGCTCACTT
For B9, the Kd (ZFP SBS#1485) was 1.54 nM.

B10: AAGGGTTCA (dsDNA)
DNA 1: AAGGGTTCA
DNA 2: TGAACCCTT
With B10 the Kd (ZFP SBS#1491) was 4.12 nM.

B11: AAGTGGTAG (dsDNA)
DNA 1: AAGTGGTAG
DNA 2: CTACCACTT
With B11 the Kd (ZFP SBS#1488) was 5.64 nM, the Kd (ZFP SBS#1492) was 1.37 nM and the Kd (ZFP SBS#1493) was 15.1 nM.

B12: GCAGAGGAA (dsDNA)
DNA 1: GCAGAGGAA
DNA 2: TTCCTCTGC
B12 showed a Kd (ZFP SBS#1457) of 0.014 nM and a Kd (ZFP SBS#1500) of 0.003 nM.

B13: GAGGCTCTT (dsDNA)
DNA 1: GAGGCTCTT
DNA 2: AAGAGCCTC
Work on B13 yielded a Kd (ZFP SBS#1497) of 0.007 nM.

B14: GGGTTTGAC (dsDNA)
DNA 1: GGGTTTGAC
DNA 2: GTCAAACCC
Binder B14 has a Kd (ZFP SBS#1494) of 0.255 nM and a Kd (ZFP SBS#1486) of 0.085 nM.

Source: patent publication US20030068675, “Position dependent recognition of GNN nucleotide triplets by zinc fingers” (published 2003)
